The values that follow come from publication doi:10.1101/2023.10.19.563203.

As usually defined, the Kd is the free concentration of one partner at which half of the binding sites on the other are occupied at equilibrium, for simple one-to-one binding.

Like-named read-outs stand apart in the source and are kept apart here.

Assay [1] has as its target fibrin (human) (UniProt P02679). As to the kind of experiment: radioligand binding.
Assay [2] shares this target. As to the kind of experiment: depletion on clotting, ELISA of plasma against the serum made from it. (In general: An ELISA detects its analyte on a solid surface through an enzyme-linked reagent.)
The target is the same in assay [3]. As to the kind of experiment: co-sedimentation.
Assay [4] has the same target. As to the kind of experiment: co-sedimentation. The source holds these as a separate data set.

As to “factor H (from UniProt P08603 19-1231) (natural protein)”, in the assay with fibrin (human) [1], the Kd turned out to be 0.055 nM, the binding at 75 mM NaCl as percent of that at 20 mM NaCl was less than 50%, the percent of input bound (500,000 cpm/well) worked out at 1.7% and the percent of input bound at saturation (input 3.5 μg) turned out to be 0.1%. Moreover, the percent of the plasma level lost in the serum (healthy volunteer) with fibrin (human) [2] came to 38%. This substance also came in with a percent bound at 96 min, non-denaturing wash with fibrin (human) [3] of 25%. Also, in the assay with fibrin (human) [4], the fold increase of percent bound, enhanced against normal clots, at 140 mM NaCl was determined as 6 fold; the percent bound after 16 h, after 5 M urea wash (Table 1) was 30%; the percent bound at 30 min, after 5 M urea wash came out at 13%; the percent bound at 30 min, non-denaturing wash was 22%. Besides, in the assay with fibrin (human) [4], the percent bound at 96 min, after 5 M urea wash worked out at 18%; the percent bound at 96 min, non-denaturing wash stood at 26%; the percent bound at 960 min, after 5 M urea wash amounted to 32.5%; the percent bound to enhanced plasma clots, 40 min, HEPES-½-saline wash is 21.5%. In the assay with fibrin (human) [4], the percent bound to fibrin-only-clots, HEPES-½-saline wash came out at 19% and the percent bound to plasma clots at 70 mM salt is 21.5%.
In the assay with fibrin (human) [4], plasminogen (natural protein) gave a percent bound after 16 h, after 5 M urea wash (Table 1) of 31%.
